Test [1] concerns the target HLA-A*02:06. Put plainly: IEDB peptide-MHC binding, purified MHC/competitive/radioactivity; ≥ and ≤ were set here for values at or beyond the usual limits of such assays.
For test [2], the target named is HLA-A*68:02. Described as above.
The target of test [3] is HLA-A*02:01. The description is as above.
Test [4] has as its target HLA-A*02:03. Put plainly: IEDB peptide-MHC binding, cellular MHC/competitive/fluorescence; ≥ and ≤ were set here for values at or beyond the usual limits of such assays.
Test [5] concerns the target HLA-A*02:02. The test is described as above.
The target in test [6] is HLA-A*02:02. The test is described as follows: IEDB peptide-MHC binding, purified MHC/competitive/radioactivity; ≥ and ≤ were set here for values at or beyond the usual limits of such assays.
In test [7] the target is HLA-A*02:06. Put plainly: IEDB peptide-MHC binding, cellular MHC/competitive/fluorescence; ≥ and ≤ were set here for values at or beyond the usual limits of such assays.
For test [8], the target named is HLA-A*68:02. Described as above.
Test [9] concerns the target HLA-A*02:01. The test is described as above.
[10] abbreviates: source organism: Vaccinia virus WR.
The mark [11] stands for this setting: source organism: Influenza A virus.
Where [12] appears, read: source organism: Mammarenavirus machupoense.
Where [13] appears, read: source organism: Mammarenavirus guanaritoense.

As usually defined, the pIC50 is the negative decadic logarithm of the IC50, by convention in mol/L.

pIC50: −log10 of the molar value. Where only a bound is given, the exact number is not on record here.

Take IVPDADPPI: the pIC50 in test [1] (setting [10]) is 6.56; in test [2] (setting [10]) it was 5.82; in test [3] (setting [10]), 6.13; in test [4] (setting [10]) it was 4.97; in test [5] (setting [10]), 5.29.

Consider LIFNVKSKLL, for which the pIC50 in test [6] (setting [10]) is 5.62; in test [4] (setting [10]) it was 5.17; in test [7] (setting [10]), 4.55; in test [8] (setting [10]), 4.49; in [9] (setting [10]), 4.59.

Regarding IVPDIKLDA, the pIC50 in test [1] (setting [10]) is 5.46; in test [2] (setting [10]) it was 5.54; in [4] (setting [10]), 4.80; in [5] (setting [10]), 5.19; in test [9] (setting [10]) it was 4.38.

Regarding IVDKFGKNHI, the pIC50 was 5.53 in test [6] (setting [10]); 5.29 in test [4] (setting [10]); 5.08 in test [7] (setting [10]); 4.91 in [8] (setting [10]); 4.95 in test [9] (setting [10]).

IVQLPKRGV: the pIC50 is 5.51 in [1] (setting [10]); 5.37 in test [2] (setting [10]); 5.06 in test [4] (setting [10]); 4.92 in [5] (setting [10]); 4.82 in test [9] (setting [10]).

Turning to DIIDLLLPST, the pIC50 was 6.55 in test [1] (setting [10]); 6.79 in test [2] (setting [10]); 6.02 in [3] (setting [10]); 5.18 in [4] (setting [10]); 4.84 in [5] (setting [10]).

For DTMRIYCSL, the pIC50 is 5.54 in test [1] (setting [10]); 8.89 in [2] (setting [10]); 5.47 in test [3] (setting [10]); 5.26 in [4] (setting [10]); 5.23 in [5] (setting [10]).

In the case of KLISEKETL, the pIC50 is 6.08 in test [6] (setting [10]); 4.61 in test [4] (setting [10]); 5.12 in [7] (setting [10]); at most 4.15 in test [8] (setting [10]); 4.99 in test [9] (setting [10]).

Consider VVIVENDNV, for which the pIC50 in test [1] (setting [10]) is 5.37; in test [2] (setting [10]) it was 6.01; in test [4] (setting [10]) it was 4.42; in test [5] (setting [10]) it was 4.88; in test [9] (setting [10]) it was 4.46.

NTVSSFQV: the negative-log IC50 (pIC50) in test [1] (setting [11]) is 5.35; in test [2] (setting [11]) it was 6.25; in test [4] (setting [11]) it was 4.22; in [5] (setting [11]), at most 4.15; in test [9] (setting [11]), 4.28.

As to NAILHNIYRL, the pIC50 was 6.24 in [1] (setting [10]); 6.14 in test [2] (setting [10]); 6.27 in test [3] (setting [10]); 4.99 in [4] (setting [10]); 5.25 in test [5] (setting [10]).

Take GTGILFMEM: the pIC50 is 5.66 in test [6] (setting [10]); 5.11 in test [4] (setting [10]); 5.00 in [7] (setting [10]); 4.58 in test [8] (setting [10]); 5.20 in test [9] (setting [10]).

Take TVDFTDCRT: the pIC50 in test [1] (setting [10]) is 6.47; in [2] (setting [10]), 6.21; in [4] (setting [10]) it was 4.57; in [5] (setting [10]), 5.01; in test [9] (setting [10]), 4.47.

On to STTGEWPLI, for which the pIC50 in [1] (setting [10]) is 5.91; in test [2] (setting [10]), 6.22; in test [4] (setting [10]), 4.35; in [5] (setting [10]), 4.68; in test [9] (setting [10]) it was 5.07.

QAKKPEVRI: the pIC50 was 6.13 in test [6] (setting [10]); 5.18 in [4] (setting [10]); 4.38 in test [7] (setting [10]); at most 4.15 in test [8] (setting [10]); 4.40 in test [9] (setting [10]).

Turning to NVLSIAPI, the pIC50 was 5.63 in test [1] (setting [11]); 5.88 in test [2] (setting [11]); 4.76 in [4] (setting [11]); 4.40 in [5] (setting [11]); 5.07 in test [9] (setting [11]).

Take FTDCRTIDAI: the pIC50 in test [1] (setting [10]) was 6.12; in [2] (setting [10]), 6.77; in test [3] (setting [10]) it was 5.74; in [4] (setting [10]) it was 4.89; in [5] (setting [10]), 5.02.

As for TTENAAYQV, the pIC50 in test [1] (setting [10]) is 6.35; in test [2] (setting [10]), 6.73; in [4] (setting [10]), 4.29; in test [5] (setting [10]) it was at most 4.15; in test [9] (setting [10]), 4.53.

As for SAGFTATICL, the pIC50 was 5.62 in test [1] (setting [10]); 5.41 in [2] (setting [10]); 4.70 in [4] (setting [10]); 5.16 in test [5] (setting [10]); 4.98 in test [9] (setting [10]).

QTVDFTDCRT: the pIC50 is 5.44 in [1] (setting [10]); 7.48 in test [2] (setting [10]); 4.27 in test [4] (setting [10]); 4.52 in test [5] (setting [10]); 4.40 in test [9] (setting [10]).

Regarding VVECLTVPNI, the pIC50 was 6.52 in test [1] (setting [10]); 5.43 in [2] (setting [10]); 5.37 in [3] (setting [10]); 4.71 in test [4] (setting [10]); 5.07 in [5] (setting [10]).

Consider DIKYDNKLL, for which the pIC50 is 5.85 in [6] (setting [10]); 4.30 in test [4] (setting [10]); at most 4.15 in [7] (setting [10]); 4.61 in test [8] (setting [10]); 4.58 in [9] (setting [10]).

Turning to SANMDWRSLT, the negative-log IC50 (pIC50) in [6] (setting [10]) is 5.75; in test [4] (setting [10]), 4.95; in test [7] (setting [10]) it was 4.32; in test [8] (setting [10]), 4.81; in test [9] (setting [10]) it was 4.25.

As to HVLLPFYET, the pIC50 in [1] (setting [10]) is 5.76; in [2] (setting [10]), 6.03; in test [3] (setting [10]), 5.60; in test [4] (setting [10]), 4.73; in test [5] (setting [10]) it was 4.79.

Turning to VIVVPVIDRL, the negative logarithm of the IC50 (pIC50) is 5.34 in test [6] (setting [10]); 4.23 in [4] (setting [10]); 4.96 in [7] (setting [10]); 4.50 in [8] (setting [10]); 4.83 in test [9] (setting [10]).

For the sequence CAVIPFDDI, the pIC50 is 5.93 in [1] (setting [10]); 7.64 in test [2] (setting [10]); 5.00 in test [4] (setting [10]); 4.80 in test [5] (setting [10]); 4.77 in test [9] (setting [10]).

For the sequence FTHTTAFFNT, the pIC50 was 7.29 in [1] (setting [10]); 5.99 in test [2] (setting [10]); 4.99 in test [4] (setting [10]); 4.76 in test [5] (setting [10]); 5.00 in test [9] (setting [10]).

For the sequence SAFDERRNRYL, the pIC50 in test [6] (setting [11]) was 5.89; in test [4] (setting [11]), 5.29; in test [7] (setting [11]), 4.46; in test [8] (setting [11]), 5.23; in [9] (setting [11]) it was 4.75.

For the sequence PLPCQLMYAL, the pIC50 is 6.79 in test [6] (setting [10]); 5.06 in [4] (setting [10]); 5.01 in test [7] (setting [10]); 4.51 in test [8] (setting [10]); 4.89 in test [9] (setting [10]).

Regarding YLSKEDRIIT, the negative-log IC50 (pIC50) in test [6] (setting [10]) is 5.89; in test [4] (setting [10]), 5.25; in [7] (setting [10]), 4.31; in test [8] (setting [10]) it was 4.67; in test [9] (setting [10]) it was 4.93.

IAGIILLIL: the pIC50 was 5.38 in test [6] (setting [10]); 5.49 in [3] (setting [10]); 4.28 in [4] (setting [10]); at most 4.15 in test [7] (setting [10]); 5.06 in [8] (setting [10]).

For LVIRNEVNDT, the pIC50 in test [1] (setting [10]) was 5.66; in test [2] (setting [10]), 6.07; in test [4] (setting [10]) it was 4.82; in test [5] (setting [10]) it was 5.26; in test [9] (setting [10]) it was 4.90.

KISVEKIKQT: the pIC50 in test [6] (setting [10]) was 5.91; in test [3] (setting [10]), 5.33; in test [4] (setting [10]) it was 5.05; in [7] (setting [10]), 4.68; in test [8] (setting [10]) it was 4.95.

Consider SMGVYQILA, for which the pIC50 is 6.29 in test [6] (setting [11]); 6.01 in test [3] (setting [11]); 5.15 in test [4] (setting [11]); 4.98 in test [7] (setting [11]); 4.77 in test [8] (setting [11]).

For NLYISDYKM, the pIC50 in [6] (setting [10]) is 5.55; in [4] (setting [10]), 4.60; in test [7] (setting [10]) it was 4.96; in [8] (setting [10]), 4.83; in test [9] (setting [10]) it was 5.21.

In the case of VAVNKSNKPL, the negative-log IC50 (pIC50) in [6] (setting [10]) was 5.56; in test [4] (setting [10]) it was 5.29; in test [7] (setting [10]), 4.75; in [8] (setting [10]) it was 5.03; in [9] (setting [10]), 4.35.

On to ETQSGALEVL, for which the pIC50 in [1] (setting [10]) is 5.80; in test [2] (setting [10]), 7.24; in test [4] (setting [10]), 4.84; in test [5] (setting [10]), 5.28; in [9] (setting [10]), 5.29.

Take CAVNTPVSM: the pIC50 in test [1] (setting [10]) was 5.82; in [2] (setting [10]) it was 6.30; in [4] (setting [10]), 4.80; in test [5] (setting [10]) it was 5.20; in test [9] (setting [10]), 4.31.

Turning to IQYRQQLELA, the pIC50 was 5.36 in test [6] (setting [10]); 5.07 in test [4] (setting [10]); at most 4.15 in test [7] (setting [10]); 4.89 in [8] (setting [10]); at most 4.15 in test [9] (setting [10]).

For EVRYIDITNI, the pIC50 in test [1] (setting [10]) was 5.36; in test [2] (setting [10]) it was 7.39; in test [4] (setting [10]), 5.24; in [5] (setting [10]), 4.89; in [9] (setting [10]) it was 5.07.

As to LISILMIFI, the negative-log IC50 (pIC50) in test [6] (setting [10]) was 5.63; in [3] (setting [10]), 5.89; in test [4] (setting [10]) it was 5.30; in test [7] (setting [10]) it was 5.15; in test [8] (setting [10]) it was 4.98.

As for LNVSYLCHL, the pIC50 in test [6] (setting [12]) is 6.53; in test [4] (setting [12]), 5.15; in test [7] (setting [12]), 4.86; in test [8] (setting [12]) it was 4.69; in test [9] (setting [12]), 5.20.

As for VATFRDMLL, the pIC50 in test [6] (setting [10]) is 5.60; in test [4] (setting [10]), 5.00; in test [7] (setting [10]), 5.11; in test [8] (setting [10]), 5.23; in [9] (setting [10]), 5.05.

On to CNYTRFWYI, for which the pIC50 was 6.59 in test [1] (setting [13]); 6.46 in test [2] (setting [13]); 5.78 in [3] (setting [13]); 5.27 in test [4] (setting [13]); 5.00 in test [5] (setting [13]).
